Source: US20140011209

Target: PrP (prion protein) (UniProt P04156)
Assay: EMSA
Settings: PrP form and source not stated

GGGAGACAAGACUAGACGCUCAACUACGAACUCAUGACACAAGGAUGCAAUCUCAUCCCG [B-end (PrPSc binding region)]
Kd: 44.3 nM
